The text below walks through data of the nanobody polyreactivity screen of Harvey et al. (2022).

The series in a line: yeast display, Sf9 membrane polyspecificity reagent, FACS + sequencing; frameworks hold sequencing errors. An outline of the steps:
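Genes from sorted yeast were amplified by colony PCR, read by MiSeq 2 × 250 sequencing and filtered on CDR length. These cells carried a synthetic nanobody library in Saccharomyces cerevisiae BJ5465 and were sorted by FACS into low and high (top ~1%) gates on anti-HA and streptavidin fluorescence. Polyreactivity is labelled according to the gate of origin.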
Regarding “QVELVESGGGLVQPGGRLRLSCAASGFTFNYYAMGWYRQAPGKEREFVAAISRGGGRTYYADSVKGRFTISRDNAKNTVYLQMNSLKPEDTAVYYCAAQSVPYAYRLASYDYWGQGTQVTVSS”, the “polyreactivity (PSR sort gate)” value is reported as “high polyreactivity”. To “QVELVVSGGGLVQAGGSLRLSCAAYGSIFLGNAMGWYRQAPGKEREFVAGIRGSAGTTSYADSVKGRFTISRDNAKNPGYLQMNSLKPEDTAVYYCAARPRHSDGYYYWGQGTEVTVSS” belongs “high polyreactivity”. To “QVHHVESAGGLVQAGGSLRLICAASGSTFDYYAMGWYRQEPGKERELLAGIDSAGSTNYADSVKGRFTISRDNAKNTVYLQMNSVKTGTYRGLYCNVGKTITTYAFPTFDYWGQGSQVTVSS” belongs “low polyreactivity”; to “QVHHVESGGGLVQAGGSLRLSCAASGFIFVHNAMGCYSQAPGKERELVAAIRSRGGSTYYADSVKGRFTISRDNAKNTVYLQMNRLKPEDTAGYYCAADGAVVSSSRKFGYWGQGTQVTVSS”, “low polyreactivity”; to “QVHHVESGGGLVQAGGSLRLSCAASGFTLGWYAMGWYRQAPGKERELVAAISSSGGSTYYADSVKGRFTISRDNAKNTVYFQMNSLKPEDTAVYFCAASSAYYRYGYGQFDYWGQGTQVTVSS”, “high polyreactivity”. Consider “QVHHVESGGGLVQAGGTLRLSCSASGSTFWANAMGWYRQQPGKEWEFVARITYSCGSTYYADSVKGRFTISRDNAKNTVYLQMNSLIREDTAVYYCAAELPGKLVYWGQGSQVTVSS”, for which the “polyreactivity (PSR sort gate)” value is on record as “low polyreactivity”. On to “QVHIVDSCGGLVKAGGSLRLSSAASGSIFHPYTMVWYRQAPGKEMELVAGISQSTDSTYYADSLKGRFTISRDYAKTTVYFQMISLKPEDTAVYYCNRVYDLPLSVVEVDYWGQGTQVTVSS”, for which the “polyreactivity (PSR sort gate)” value is given as “low polyreactivity”. Turning to “QVHIVESGEVIVQAGGSLRLSCDASGFTIIQYAMGWYRQAPGKERELVAAISVSGGSTYYADSVKGRFTISRDNAKNTVYLQMNSLKTEDTAVYYCATYGFHSIGSIFEYEYWGQGTQVTVSS”, the “polyreactivity (PSR sort gate)” value is on record as “high polyreactivity”.

Take “QVHIVESGGGLVQAGGSLRLSCAASGFTFFSNAMGWYRQAPGKQRELVASISASGSGTYYAVSVKGRFTISRDNAKNTFYLQMNSLKPDDTAVYYCSTRVGKILTTKYGYWGQGTQVSVSS”: the “polyreactivity (PSR sort gate)” value was “high polyreactivity”. Regarding “QVHLEESGGCLVQAGGSLRLSCAASGLFARNAMGWYRQAPGKERELVAAINRSGGSTYYADSVKGPFTISRDNAKNTVYLQMKSLKPEDTAVYYCNQAFTHTKDLSPIAYEYVFWGQGTQVTVSS”, the “polyreactivity (PSR sort gate)” value is “low polyreactivity”. Take “QVHLEESGGGLVQAGGSLRLSWAASGATFSNYTMGWDRQAPGNERELVAAISRTGGSTYYADSVNGRFTISRDNAKNHVYLQISSLEPEDNAVYYCAAICYVGRYYYWGQGNQVTVSS”: the “polyreactivity (PSR sort gate)” value is “high polyreactivity”. In the case of “QVHLLDSVGGLVQAGGSLRLSCAACGRIVGTNAMGWYRQAPGKERELVATITRGGGNTYYADSVKGRFTISRDNAKNTVYLQLNSLKPEDTAGYDCAAKFHRFAWYSHYAYWGQGTQVTVSS”, the “polyreactivity (PSR sort gate)” value is “low polyreactivity”.

As for “QVHLLESGGGLVQAGGSLRLSCAASGRTFYDYTMGWYRQAPGKERELVAVISKRGGSTYYADSVKGRFTISRDNAKNTVYLQMNSLKPEDTAVYYCAAKSGRNVYQKVDYWGQGTQVTVSS”, the “polyreactivity (PSR sort gate)” value was “high polyreactivity”.

As to “QVHLQESGDGLVQPVGSQRLSCAASGYISGNYYMGWYRQAPGTERELVAGIDAFGSSTNYADCVKGRFTISRYNAKNSVYLQMYRLKPEDTAVYYCAAPPDGDRLFSYWGQGTQVTVSS”, the “polyreactivity (PSR sort gate)” value was “low polyreactivity”. “QVHLQESGGGLVQAGGSLRLSCAASGNIVDADIMGWYRQAPGKERELVASITDGGSTNYADSVKGRFTISRDNAKNTVYLQMNSLKPEDTAVYYCAAIGYPDIPTYFDYDSEYFYWGQGTQVTVSS”: the “polyreactivity (PSR sort gate)” value is “low polyreactivity”. To “QVHLQESGGGLVQAGGSLRLSCAASGNNSPVGVLGRYRQAPGKERELVATINFGGSSYYADSVKGRFTISRDNAKNTVYLQMNSLKREDTAVYYFAYCGQGTQVTVSS” belongs “low polyreactivity”. For “QVHLQESGVVLMQARGNLRMSCAASGYISTQYHMDWYRQAPGKERELVARIDYGAITNYADSVKGRFTIRRDNAKNTVYLQMTSLKPEDTAVYYCAVYSGDDYYHDYWGHGTQVTVSS”, the “polyreactivity (PSR sort gate)” value is reported as “low polyreactivity”.

Take “QVHLQESRGGLVQAGGSLRLSCAASGIIFDNPNMGCYRQAPGKERELVATINSGATTNYADSVKGRFTISRDNAKNTVYLQMNSLIPEDTAVYYCAVDLSPTYFYYWGQGTQVTVSS”: the “polyreactivity (PSR sort gate)” value is on record as “high polyreactivity”. To “QVHLVASGGGLVQAGGSLRLRCAASGFTIDTYAKGWYRQAPGKERDLVAGISWSGGSTYYADSVKGRFTISRDNAKNTVYLQRNSLNPEDTAVYYCAADYAGYPGRTRQRPGYDYWGQGTQVTVSS” belongs “low polyreactivity”; to “QVHLVDSAGGLVQAGGSLRLSCAASGNIFDYNGMGWYRQAPGKERELVAGINWSGGSTYYADSVKGRFTISRDNAKNTVYLQMNSLTPEDTAVYYCAAECVYDWYPFWRAIYTYDYWGQGTQVTVSS”, “low polyreactivity”. As for “QVHLVDSCGALVQAGGSLSIRCAASGLTIYRYAKGWNRQEPRKETEVVAAISSADRTYYADSVKGRFTISRDNAKNTVYLQMNSLKPEDTAVYYCAARANYFGWTKSYYYWGQGTQVTVSS”, the “polyreactivity (PSR sort gate)” value is “high polyreactivity”.

Regarding “QVHLVDSGAGLVQAGGSLRLSCAASGYTFYANAMGWYRQAPGKERELVAGINRSGSTYYADSVKGRFTISRDNAKNTVYLQMNSLKPEDTAVYYCATAWHRGVRGRTSGAFDYWGQGTQVTVSS”, the “polyreactivity (PSR sort gate)” value is “high polyreactivity”. To “QVHLVDSGGGLVQAGGILRLSCPATGSIFVYNTMGWYRQAPGKERELVADITSGTSTYYADSVKGRFTISRDNAKNTVYLQMNSLKPEDTAVYYSAAERWYKYYAYDYWGQGTQVTVSS” belongs “low polyreactivity”. “QVHLVDSGGGLVQAGGSLRLSCAASGRIYYVYAMGGYRQAPGQERELVAGITSTGGSTYYADSVKGRFTISRDNAKSTVYLQINRLNPVDTAVYYGATDYGYYDYWGQGTQVTVSS”: the “polyreactivity (PSR sort gate)” value is given as “low polyreactivity”. With “QVHLVDSGGGLVQAGGSLRLSCAASGSTIKTYTKGWYRQAPGKERELVAGITSGVSTSYADSVKGRFTISRDNAKNTVYLQMNSLKPEDTAVYYCNADAYLVIYFYTVRDYGYDYWGQGTQVTVSS”, the “polyreactivity (PSR sort gate)” value is given as “low polyreactivity”. To “QVHLVDSGGGLVQAGGSLRLTCAASGITFYRYAMGWYRQAPWKERELVAAITGGGRTYYADSVKGRFTISRDNAKNTVYLQMNSLKPEDTAVYYCNVRTLHSVRGYDYWGQGTQVTVSS” belongs “high polyreactivity”.

Turning to “QVHLVESAGCLVQAGGSLRLSCAASGSIIYLYAMGWYRQAPGKERELVAAISSGGSTNYADSVKGRFTISRDNAKNSVYLQMNSLKPEDTAVYYCAATLPGWYNEYDSWGQGTQVTVSS”, the “polyreactivity (PSR sort gate)” value is “low polyreactivity”.

Regarding “QVHLVESDGGLVQAGGSLRLSCAASGIIFGYYVMGWYRQAPGKERELVASITSGGSTNYADSVKGRYTISRDNAKNTVYLQMNSLIPEYTAVYYCATDEPVGRYKHNYYWGQGTKVTVSS”, the “polyreactivity (PSR sort gate)” value is listed as “low polyreactivity”. With “QVHLVESGAGLVQAGGSLRLSCAASGSVFPVNAMGWYRQAPGKERELVAAISGSSGSTYYADSVKGRFTISRDNAKNTVYLQMNSLKPEDTAVYYCAKRGYGYGDGAYYYWGQGTQVTVSS” the entry was “low polyreactivity”.

With “QVHLVESGGALVQAGASLRLSCAASGFTYGLYSMGWYRQAPGKERELVAVISSSGGSTYYADSVKGRFTISRDNAKNTVYLQMNRLKPEDTAVYYCAAEWLDYKFDVSYDYWGQCTQVTVSS”, the “polyreactivity (PSR sort gate)” value is reported as “low polyreactivity”. As to “QVHLVESGGALVQAGGSLRLSCAASGLTFVTNSMGWYRQAPGKERELVAAISLGGGSTYYADSVKGRFTISLDNAKNTVYLQMNSLKPEDTAVYYCAAVPGWVRQAVGWVLSLLDYCGQGTQVTVSS”, the “polyreactivity (PSR sort gate)” value is listed as “low polyreactivity”. With “QVHLVESGGALVQAGGSLRLSCAASGRTFGIYAMGWYRQAPGKERELVATISWRGGSTYYADSVKGRFPISRDNAKNTVYLQMNSLKPEDTAVYYCAAGYYPYWGQGTQVTVSS” the entry was “low polyreactivity”. For “QVHLVESGGALVQAGGSLRLSCAASGSTFGGYAMGWYRPAPWKERELVAAITRSGGTTYYADSVKGRFTISRDNAKNTVYLQMNSLKPEDTAVYYCAAQGRRRPHQDAPYDYWGQGTQVTVSS”, the “polyreactivity (PSR sort gate)” value is recorded as “high polyreactivity”. To “QVHLVESGGCLVQAGCSLRLSCAASGRTFGWNVMGWYRQAPGTERELVAAISGSGGSTYYADSVKGRFTISRDNAKNTVYLQMNSLKPEDTAVYYCAALYGPGREYDYWGQGTQVTVSS” belongs “low polyreactivity”. With “QVHLVESGGCLVQAGGSLRLSCAASGFIFPWYAMGWYRQAPGKERELVAAISSSGGRTYYADSVKGRFTISRDNAKNTVYLQMNSLKPEDTGVYYCNVAYGLSQVYRYNYWGQGSQVTVSS” the entry was “high polyreactivity”; with “QVHLVESGGCLVQAGGSLRLSSAASASIFYYNTMGWYIQAPGKERELVATNSSDGGTNYADSVKGRFTISRDNAKNTVYLQMNSLKPEDTAVYYCAAAVSPYSYWPGFDYWGQGTQVTVSS”, “low polyreactivity”.

Regarding “QVHLVESGGGEVQAGGSLRLSCAASGRTFYNYAMGWYRQAPGKERELVASIRKNGGSTYYAYSVKGRFSISRDNAKNTVYLQMNSLKPEDTAVYYFAARYWGISRIFPSKYDYWGQGTQVTVSS”, the “polyreactivity (PSR sort gate)” value is given as “high polyreactivity”. With “QVHLVESGGGFVQAGGSLRLSCAASGSIFVINGMGWYRQAPGKERELVAAISSRGGDTYYADSVKGRFTISRDNAKNTVYLQMNSLKPEDTAVYYCNARYYTSYDYWGQGTKVTVSS” the entry was “low polyreactivity”; with “QVHLVESGGGIDQAGGSLRLSCAASGSTFTNNTMGWYRPAPGKERELVAGITKSGGSTYYADSVKGRFTISRDNAKKTVYLQMNSLKPEDTAVYYCATSTSRRYGSRHNYWGQGTQVTVSS”, “high polyreactivity”. As to “QVHLVESGGGIVQAGGSLRLSCAASGRTFWNYAMRWYRQAPGKERELVAVIRFSDGSTYYADSVKGRFTISRDNAKNTVYVQMNSLKPEDTAVYYCAAKGQRRWGSGFDYWGQGTQVTVSS”, the “polyreactivity (PSR sort gate)” value is recorded as “low polyreactivity”. For “QVHLVESGGGIVQAGGSLRLSCAASGSIFNYYAMGWYRQAPGKETELVAAITWSGGRTYYADSVKGRFTISRDNAKNTVDLQMNSEKPEDTAVYYFATATVRFRVILFSPRMDDWGQGSQVTVSS”, the “polyreactivity (PSR sort gate)” value is “low polyreactivity”.
